Target: the molecule itself
Test: negative-stain transmission electron microscopy

B1: LPS-free OmpF refolded from inclusion bodies, reconstituted into Amphipol A8-35 (natural protein)
chain: MEIYNKDGNKVDLYGKAVGLHYFSKGNGENSYGGNGDMTYARLGFKGETQINSDLTGYGQWEYNFQGNNSEGADAQTGNKTRLAFAGLKYADVGSFDYGRNYGVVYDALGYTDMLPEFGGDTAYSDDFFVGRVGGVATYRNSNFFGLVDGLNFAVQYLGKNERDTARRSNGDGVGGSISYEYEGFGIVGAYGAADRTNLQEAQPLGNGKKAEQWATGLKYDANNIYLAANYGETRNATPITNKFTNTSGFANKTQDVLLVAQYQFDFGLRPSIAYTKSKAKDVEGIGDVDLVNYFEVGATYYFNKNMSTYVDYIINQIDSDNKLGVGSDDTVAVGIVYQF
binding result: binds
